Laboratory results as given in the supplement of paper PMC10065799, “High-throughput profiling of sequence recognition by tyrosine kinases and SH2 domains using bacterial peptide display” (eLife, 2023).

Experiments:
Fes = Fes (UniProt P07332); experiment: phosphorylation enrichment, bacterial display (enrichment ratio); higher = better substrate or ligand; peptides without Tyr show the background
Jak2 = Jak2 (UniProt O60674); experiment: as above
c-Src = experiment: as above
Fyn = Fyn (UniProt P06241); experiment: as above
FGFR3 = FGFR3 (UniProt P22607); experiment: as above
c-Abl (mouse) = experiment: as above
EPHB1 = EPHB1 (UniProt P54762); experiment: as above
FGFR1 = FGFR1 (UniProt P11362); experiment: as above
Hck = Hck (UniProt P08631); experiment: as above
AncSZ = experiment: as above
EPHB2 = EPHB2 (UniProt P29323); experiment: as above
MERTK = MERTK (UniProt Q12866); experiment: as above
Fer (mouse) = experiment: as above
c-Src SH2 = experiment: SH2 binding enrichment of the phosphorylated peptide, bacterial display (enrichment ratio); higher = better substrate or ligand; peptides without Tyr show the background
SHP2-C SH2 = experiment: as above
Grb2 SH2 = Grb2 SH2 (UniProt P62993); experiment: as above
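For SH2 binding enrichment of the phosphorylated peptide, bacterial display in this document: peptide library displayed on the E. coli surface as eCPX fusions, selected cells deep-sequenced, score is each peptide's frequency after selection divided by its frequency in the input.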
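For phosphorylation enrichment, bacterial display in this document: 11-residue human phosphosite peptides and single-mutation variants displayed on the E. coli surface, counted by deep sequencing, each peptide's frequency after selection divided by its frequency in the unselected input library; frequency after pTyr selection over input frequency; kinase dosed for 20-30% of maximal phosphorylation in three min.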

MERTK, sequence (Q12866 whole entry, looked up): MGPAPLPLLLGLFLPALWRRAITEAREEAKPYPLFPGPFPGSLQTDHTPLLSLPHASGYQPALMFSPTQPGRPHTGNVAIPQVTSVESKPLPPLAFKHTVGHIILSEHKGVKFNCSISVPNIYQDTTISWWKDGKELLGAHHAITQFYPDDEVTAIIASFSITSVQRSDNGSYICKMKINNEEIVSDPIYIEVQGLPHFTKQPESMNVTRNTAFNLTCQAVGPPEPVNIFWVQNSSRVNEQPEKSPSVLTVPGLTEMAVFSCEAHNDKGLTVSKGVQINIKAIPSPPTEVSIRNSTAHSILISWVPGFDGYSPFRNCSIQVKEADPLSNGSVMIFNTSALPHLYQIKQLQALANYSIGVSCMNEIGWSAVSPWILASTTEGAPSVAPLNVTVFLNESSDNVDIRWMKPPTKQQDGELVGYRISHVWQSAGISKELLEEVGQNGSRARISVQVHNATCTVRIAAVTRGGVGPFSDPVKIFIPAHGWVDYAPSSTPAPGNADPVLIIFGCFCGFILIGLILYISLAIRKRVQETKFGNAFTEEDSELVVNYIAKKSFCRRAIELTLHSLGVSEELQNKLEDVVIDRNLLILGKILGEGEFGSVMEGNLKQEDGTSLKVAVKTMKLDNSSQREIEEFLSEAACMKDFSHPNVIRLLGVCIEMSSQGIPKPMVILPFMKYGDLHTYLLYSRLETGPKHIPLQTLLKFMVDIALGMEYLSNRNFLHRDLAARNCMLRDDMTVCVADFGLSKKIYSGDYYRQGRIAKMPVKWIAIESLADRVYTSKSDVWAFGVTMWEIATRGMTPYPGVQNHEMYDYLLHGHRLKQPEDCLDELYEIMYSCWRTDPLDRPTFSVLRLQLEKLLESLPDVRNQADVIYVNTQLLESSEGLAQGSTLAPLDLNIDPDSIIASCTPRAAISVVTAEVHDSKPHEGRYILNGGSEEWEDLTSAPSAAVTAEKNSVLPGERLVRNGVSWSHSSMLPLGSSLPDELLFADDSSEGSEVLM
FGFR1, sequence (P11362 whole entry, looked up): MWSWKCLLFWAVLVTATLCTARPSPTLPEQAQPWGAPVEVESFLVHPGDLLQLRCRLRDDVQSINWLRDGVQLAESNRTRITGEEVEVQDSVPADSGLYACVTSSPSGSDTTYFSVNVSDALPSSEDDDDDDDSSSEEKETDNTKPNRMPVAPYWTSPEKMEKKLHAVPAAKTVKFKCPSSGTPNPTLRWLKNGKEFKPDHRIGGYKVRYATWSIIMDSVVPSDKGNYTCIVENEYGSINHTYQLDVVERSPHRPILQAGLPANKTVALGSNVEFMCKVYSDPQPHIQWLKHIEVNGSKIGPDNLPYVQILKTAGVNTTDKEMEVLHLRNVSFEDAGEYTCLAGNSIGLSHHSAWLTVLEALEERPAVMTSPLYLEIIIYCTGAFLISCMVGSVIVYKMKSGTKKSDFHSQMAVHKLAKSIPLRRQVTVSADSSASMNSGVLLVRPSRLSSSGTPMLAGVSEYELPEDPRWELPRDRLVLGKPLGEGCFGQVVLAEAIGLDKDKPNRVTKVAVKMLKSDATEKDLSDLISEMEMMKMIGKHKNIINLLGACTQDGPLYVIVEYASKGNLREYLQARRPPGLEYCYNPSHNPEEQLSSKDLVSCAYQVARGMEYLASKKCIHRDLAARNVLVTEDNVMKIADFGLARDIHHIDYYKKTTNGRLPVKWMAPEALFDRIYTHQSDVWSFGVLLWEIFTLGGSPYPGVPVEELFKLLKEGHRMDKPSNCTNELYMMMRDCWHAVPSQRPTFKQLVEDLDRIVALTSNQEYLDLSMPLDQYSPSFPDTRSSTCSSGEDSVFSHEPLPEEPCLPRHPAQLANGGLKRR
Hck, sequence (P08631 whole entry, looked up): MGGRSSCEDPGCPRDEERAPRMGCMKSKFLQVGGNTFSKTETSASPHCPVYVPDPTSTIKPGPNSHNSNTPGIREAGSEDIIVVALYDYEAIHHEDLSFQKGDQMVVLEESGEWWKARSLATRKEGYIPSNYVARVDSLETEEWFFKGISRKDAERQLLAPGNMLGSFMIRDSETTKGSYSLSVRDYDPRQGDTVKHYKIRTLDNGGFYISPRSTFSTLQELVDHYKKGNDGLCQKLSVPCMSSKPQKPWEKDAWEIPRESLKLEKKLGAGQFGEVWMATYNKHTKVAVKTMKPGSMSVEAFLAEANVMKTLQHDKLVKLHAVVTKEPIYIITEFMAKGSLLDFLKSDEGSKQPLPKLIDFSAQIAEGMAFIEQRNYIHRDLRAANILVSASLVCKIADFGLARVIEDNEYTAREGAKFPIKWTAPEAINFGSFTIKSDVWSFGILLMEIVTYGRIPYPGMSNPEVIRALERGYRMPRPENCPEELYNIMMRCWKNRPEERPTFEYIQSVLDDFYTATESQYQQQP
EPHB2, sequence (P29323 whole entry, looked up): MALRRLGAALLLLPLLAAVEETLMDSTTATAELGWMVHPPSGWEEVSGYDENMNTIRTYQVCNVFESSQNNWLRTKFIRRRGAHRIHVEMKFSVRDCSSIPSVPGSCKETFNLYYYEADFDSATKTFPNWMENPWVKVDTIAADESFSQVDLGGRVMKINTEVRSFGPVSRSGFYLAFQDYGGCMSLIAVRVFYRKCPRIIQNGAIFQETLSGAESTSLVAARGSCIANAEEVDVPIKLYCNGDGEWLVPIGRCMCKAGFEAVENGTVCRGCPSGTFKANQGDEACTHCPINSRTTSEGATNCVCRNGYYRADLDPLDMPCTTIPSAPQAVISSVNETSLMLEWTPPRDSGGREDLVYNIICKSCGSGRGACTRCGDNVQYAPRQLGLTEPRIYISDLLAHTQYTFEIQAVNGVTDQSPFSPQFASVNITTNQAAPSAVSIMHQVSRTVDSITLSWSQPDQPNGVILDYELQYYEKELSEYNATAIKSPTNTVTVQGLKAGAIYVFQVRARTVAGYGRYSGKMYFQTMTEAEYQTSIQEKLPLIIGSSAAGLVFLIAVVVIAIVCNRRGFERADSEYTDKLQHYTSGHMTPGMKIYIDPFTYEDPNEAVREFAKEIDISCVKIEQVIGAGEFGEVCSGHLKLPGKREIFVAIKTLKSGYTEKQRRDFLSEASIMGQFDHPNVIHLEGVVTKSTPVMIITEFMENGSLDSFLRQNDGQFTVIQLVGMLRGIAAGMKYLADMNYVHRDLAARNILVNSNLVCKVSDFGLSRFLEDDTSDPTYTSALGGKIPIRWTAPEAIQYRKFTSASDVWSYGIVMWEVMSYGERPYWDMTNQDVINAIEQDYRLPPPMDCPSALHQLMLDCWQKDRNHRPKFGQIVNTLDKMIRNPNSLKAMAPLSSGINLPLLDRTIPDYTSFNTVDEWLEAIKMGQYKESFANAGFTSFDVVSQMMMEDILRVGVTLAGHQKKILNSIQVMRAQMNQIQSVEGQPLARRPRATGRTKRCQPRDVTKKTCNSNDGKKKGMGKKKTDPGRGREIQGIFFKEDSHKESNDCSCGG
Grb2 SH2, sequence (P62993 whole entry, looked up, the tested form may be a part): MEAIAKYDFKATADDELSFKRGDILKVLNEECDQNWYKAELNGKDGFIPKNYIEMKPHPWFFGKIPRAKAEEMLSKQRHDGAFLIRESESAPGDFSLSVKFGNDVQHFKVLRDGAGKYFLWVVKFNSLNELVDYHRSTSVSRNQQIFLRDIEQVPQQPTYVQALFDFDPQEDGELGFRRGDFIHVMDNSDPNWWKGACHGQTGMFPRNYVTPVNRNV
EPHB1, sequence (P54762 whole entry, looked up): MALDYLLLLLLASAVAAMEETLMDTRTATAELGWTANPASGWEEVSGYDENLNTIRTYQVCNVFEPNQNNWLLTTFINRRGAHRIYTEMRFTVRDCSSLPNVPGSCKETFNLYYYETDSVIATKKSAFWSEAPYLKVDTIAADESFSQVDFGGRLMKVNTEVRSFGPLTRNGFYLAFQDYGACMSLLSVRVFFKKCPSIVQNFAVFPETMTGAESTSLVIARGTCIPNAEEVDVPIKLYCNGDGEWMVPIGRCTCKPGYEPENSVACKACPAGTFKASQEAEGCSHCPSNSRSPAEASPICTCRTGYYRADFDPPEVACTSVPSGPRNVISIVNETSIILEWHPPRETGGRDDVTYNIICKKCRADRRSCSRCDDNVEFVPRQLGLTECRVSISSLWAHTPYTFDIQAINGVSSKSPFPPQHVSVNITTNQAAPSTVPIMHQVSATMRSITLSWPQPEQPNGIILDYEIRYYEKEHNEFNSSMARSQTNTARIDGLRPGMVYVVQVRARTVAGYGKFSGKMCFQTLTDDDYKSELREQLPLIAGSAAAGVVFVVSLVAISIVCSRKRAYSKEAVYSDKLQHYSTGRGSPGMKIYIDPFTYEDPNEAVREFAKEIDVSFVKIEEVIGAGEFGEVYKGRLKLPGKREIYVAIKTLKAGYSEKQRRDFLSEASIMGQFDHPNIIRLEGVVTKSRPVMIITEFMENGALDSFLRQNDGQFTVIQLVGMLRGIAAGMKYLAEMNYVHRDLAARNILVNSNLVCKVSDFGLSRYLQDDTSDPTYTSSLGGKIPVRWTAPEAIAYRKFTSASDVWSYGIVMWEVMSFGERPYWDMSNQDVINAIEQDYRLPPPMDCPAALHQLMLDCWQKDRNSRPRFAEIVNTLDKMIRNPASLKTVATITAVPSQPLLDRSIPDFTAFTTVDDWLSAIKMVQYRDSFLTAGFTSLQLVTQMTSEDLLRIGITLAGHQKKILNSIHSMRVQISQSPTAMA

Sequence: MYDKEYYSVHN [MET_Y1234]
- phosphorylation enrichment (Fes): 1.1
- phosphorylation enrichment (Jak2): 2.53
- phosphorylation enrichment (c-Src): 1.65
- phosphorylation enrichment (Fyn): 0.64
- phosphorylation enrichment (FGFR3): 4.25
- phosphorylation enrichment (c-Abl (mouse)): 1.05
- phosphorylation enrichment (EPHB1): 0.965
- phosphorylation enrichment (FGFR1): 7.14
- phosphorylation enrichment (Hck): 0.903
- phosphorylation enrichment (AncSZ): 2.1
- phosphorylation enrichment (EPHB2): 1.13
- phosphorylation enrichment (MERTK): 0.813
- phosphorylation enrichment (Fer (mouse)): 0.727
- SH2 binding enrichment (c-Src SH2): 0.622
- SH2 binding enrichment (SHP2-C SH2): 0.566
- SH2 binding enrichment (Grb2 SH2): 0.873

Sequence: RQEEEYKRFSE [SFSWAP_Y133_L136F]
- phosphorylation enrichment (Fes): 1.95
- phosphorylation enrichment (Jak2): 1.11
- phosphorylation enrichment (c-Src): 0.554
- phosphorylation enrichment (Fyn): 0.602
- phosphorylation enrichment (FGFR3): 0.918
- phosphorylation enrichment (c-Abl (mouse)): 0.831
- phosphorylation enrichment (EPHB1): 0.779
- phosphorylation enrichment (FGFR1): 0.712
- phosphorylation enrichment (Hck): 0.648
- phosphorylation enrichment (AncSZ): 1.41
- phosphorylation enrichment (EPHB2): 0.88
- phosphorylation enrichment (MERTK): 0.682
- phosphorylation enrichment (Fer (mouse)): 0.663
- SH2 binding enrichment (c-Src SH2): 0.609
- SH2 binding enrichment (SHP2-C SH2): 0.66
- SH2 binding enrichment (Grb2 SH2): 1.27

Sequence: VGSIKYLKREW [KCNMA1_Y885_E884K]
- phosphorylation enrichment (Fes): 0.754
- phosphorylation enrichment (Jak2): 0.61
- phosphorylation enrichment (c-Src): 0.38
- phosphorylation enrichment (Fyn): 0.395
- phosphorylation enrichment (FGFR3): 0.431
- phosphorylation enrichment (c-Abl (mouse)): 0.482
- phosphorylation enrichment (EPHB1): 0.56
- phosphorylation enrichment (FGFR1): 0.412
- phosphorylation enrichment (Hck): 0.446
- phosphorylation enrichment (AncSZ): 0.68
- phosphorylation enrichment (EPHB2): 0.505
- phosphorylation enrichment (MERTK): 0.311
- phosphorylation enrichment (Fer (mouse)): 0.465
- SH2 binding enrichment (c-Src SH2): 0.802
- SH2 binding enrichment (SHP2-C SH2): 0.723
- SH2 binding enrichment (Grb2 SH2): 1.16

Sequence: VRFTEYETQVK [TARDBP_Y155]
- phosphorylation enrichment (Fes): 0.896
- phosphorylation enrichment (Jak2): 0.761
- phosphorylation enrichment (c-Src): 0.406
- phosphorylation enrichment (Fyn): 0.4
- phosphorylation enrichment (FGFR3): 0.542
- phosphorylation enrichment (c-Abl (mouse)): 0.629
- phosphorylation enrichment (EPHB1): 0.53
- phosphorylation enrichment (FGFR1): 0.413
- phosphorylation enrichment (Hck): 0.519
- phosphorylation enrichment (AncSZ): 0.791
- phosphorylation enrichment (EPHB2): 1.01
- phosphorylation enrichment (MERTK): 0.401
- phosphorylation enrichment (Fer (mouse)): 0.431
- SH2 binding enrichment (c-Src SH2): 0.583
- SH2 binding enrichment (SHP2-C SH2): 0.754
- SH2 binding enrichment (Grb2 SH2): 0.813

Sequence: ARDVIYIIIPA [FRKtide_2014]
- phosphorylation enrichment (Fes): 1.36
- phosphorylation enrichment (Jak2): 1.42
- phosphorylation enrichment (c-Src): 1.52
- phosphorylation enrichment (Fyn): 0.873
- phosphorylation enrichment (FGFR3): 2
- phosphorylation enrichment (c-Abl (mouse)): 1.17
- phosphorylation enrichment (EPHB1): 2.48
- phosphorylation enrichment (FGFR1): 2.92
- phosphorylation enrichment (Hck): 1.23
- phosphorylation enrichment (AncSZ): 1.31
- phosphorylation enrichment (EPHB2): 0.986
- phosphorylation enrichment (MERTK): 2.21
- phosphorylation enrichment (Fer (mouse)): 0.559
- SH2 binding enrichment (c-Src SH2): 1.44
- SH2 binding enrichment (SHP2-C SH2): 2.09
- SH2 binding enrichment (Grb2 SH2): 1.82

Sequence: DPHQQYYIAMD [TBX15_Y159]
- phosphorylation enrichment (Fes): 0.881
- phosphorylation enrichment (Jak2): 0.996
- phosphorylation enrichment (c-Src): 1.55
- phosphorylation enrichment (Fyn): 0.625
- phosphorylation enrichment (FGFR3): 4.36
- phosphorylation enrichment (c-Abl (mouse)): 0.59
- phosphorylation enrichment (EPHB1): 0.735
- phosphorylation enrichment (FGFR1): 6.27
- phosphorylation enrichment (Hck): 0.669
- phosphorylation enrichment (AncSZ): 1.05
- phosphorylation enrichment (EPHB2): 0.593
- phosphorylation enrichment (MERTK): 2.7
- phosphorylation enrichment (Fer (mouse)): 0.52
- SH2 binding enrichment (c-Src SH2): 1.75
- SH2 binding enrichment (SHP2-C SH2): 0.737
- SH2 binding enrichment (Grb2 SH2): 0.957

Sequence: LVRPPYSFLAL [FOXI1_Y126_S129L_YF]
- phosphorylation enrichment (Fes): 0.787
- phosphorylation enrichment (Jak2): 0.71
- phosphorylation enrichment (c-Src): 0.525
- phosphorylation enrichment (Fyn): 0.525
- phosphorylation enrichment (FGFR3): 0.866
- phosphorylation enrichment (c-Abl (mouse)): 0.526
- phosphorylation enrichment (EPHB1): 0.584
- phosphorylation enrichment (FGFR1): 1.07
- phosphorylation enrichment (Hck): 0.727
- phosphorylation enrichment (AncSZ): 0.683
- phosphorylation enrichment (EPHB2): 0.523
- phosphorylation enrichment (MERTK): 1.05
- phosphorylation enrichment (Fer (mouse)): 1.22
- SH2 binding enrichment (c-Src SH2): 0.547
- SH2 binding enrichment (SHP2-C SH2): 0.842
- SH2 binding enrichment (Grb2 SH2): 0.713

Sequence: LPKEQYLCTKE [AFG3L2_Y614_Y616C]
- phosphorylation enrichment (Fes): 1.01
- phosphorylation enrichment (Jak2): 0.868
- phosphorylation enrichment (c-Src): 0.427
- phosphorylation enrichment (Fyn): 0.466
- phosphorylation enrichment (FGFR3): 0.653
- phosphorylation enrichment (c-Abl (mouse)): 0.723
- phosphorylation enrichment (EPHB1): 0.463
- phosphorylation enrichment (FGFR1): 0.482
- phosphorylation enrichment (Hck): 0.409
- phosphorylation enrichment (AncSZ): 0.858
- phosphorylation enrichment (EPHB2): 0.428
- phosphorylation enrichment (MERTK): 0.409
- phosphorylation enrichment (Fer (mouse)): 0.562
- SH2 binding enrichment (c-Src SH2): 0.584
- SH2 binding enrichment (SHP2-C SH2): 0.533
- SH2 binding enrichment (Grb2 SH2): 0.883
